According to the supplement of paper PMC9112550, “Optimization of the antimicrobial peptide Bac7 by deep mutational scanning” (BMC Biology, 2022):

System: Escherichia coli TOP10
Assay: shrunken log2 fold change of peptide-encoding DNA abundance (4.5 h post-induction vs induction); higher = less antimicrobial activity (less host growth inhibition)
Conditions: time post-induction: 4.5 h; library: site-saturation at positions 5, 18, 19, 20
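Note: peptides expressed intracellularly from a pBAD plasmid library in pooled LB shake-flask culture, induced with 0.3% L-arabinose, DNA abundance read by NGS, three biological replicates, DESeq2 with apeglm shrinkage.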

| Sequence | shrunken log2 fold change |
| --- | --- |
| RRIRKRPPRLPRPRPRPELCPRP | -0.021 |
| RRIRKRPPRLPRPRPRPSITPRP | 0.846 |
| RRIRLRPPRLPRPRPRPQMLPRP | 0.0385 |
| RRIRYRPPRLPRPRPRPLNLPRP | -0.369 |
| RRIRRRPPRLPRPRPRPCNEPRP | -0.0323 |
| RRIRFRPPRLPRPRPRPSVDPRP | -0.011 |
| RRIRLRPPRLPRPRPRPKRGPRP | 0.483 |
| RRIRFRPPRLPRPRPRPKCNPRP | -0.238 |
| RRIRTRPPRLPRPRPRPDDFPRP | 0.0516 |
| RRIRTRPPRLPRPRPRPQFNPRP | -0.226 |
| RRIRRRPPRLPRPRPRPGTAPRP | 0.414 |
| RRIRTRPPRLPRPRPRPAWNPRP | -0.0659 |
| RRIRCRPPRLPRPRPRPVIQPRP | -0.468 |
| RRIRHRPPRLPRPRPRPENSPRP | -0.304 |
| RRIRKRPPRLPRPRPRPNHGPRP | -0.0607 |
| RRIRFRPPRLPRPRPRPNMFPRP | -0.259 |
| RRIRCRPPRLPRPRPRPGKEPRP | -0.0657 |
| RRIRRRPPRLPRPRPRPRFRPRP | 0.455 |
| RRIRERPPRLPRPRPRPGGGPRP | 0.855 |
| RRIRTRPPRLPRPRPRPLFMPRP | -0.737 |
| RRIRTRPPRLPRPRPRPAQKPRP | -0.00259 |
| RRIRQRPPRLPRPRPRPPLPPRP | 0.424 |
| RRIRARPPRLPRPRPRPQTMPRP | 0.108 |
| RRIRHRPPRLPRPRPRPEALPRP | -0.0062 |
| RRIRGRPPRLPRPRPRPYEVPRP | 0.0996 |

| Sequence | shrunken log2 fold change |
| --- | --- |
| RRIRQRPPRLPRPRPRPFHDPRP | -0.336 |
| RRIRPRPPRLPRPRPRPGGYPRP | 0.25 |
| RRIRARPPRLPRPRPRPGLCPRP | 0.553 |
| RRIRNRPPRLPRPRPRPDMGPRP | -0.00968 |
| RRIRVRPPRLPRPRPRPDAMPRP | 0.0806 |
| RRIRERPPRLPRPRPRPRLKPRP | -0.0205 |
| RRIRTRPPRLPRPRPRPASMPRP | -0.212 |
| RRIRGRPPRLPRPRPRPCMSPRP | 0.151 |
| RRIRNRPPRLPRPRPRPGDFPRP | 0.264 |
| RRIRPRPPRLPRPRPRPNSEPRP | -0.211 |
| RRIRFRPPRLPRPRPRPIETPRP | -0.186 |
| RRIRHRPPRLPRPRPRPIWDPRP | -0.00794 |
| RRIRIRPPRLPRPRPRPENMPRP | -0.396 |
| RRIRTRPPRLPRPRPRPLPQPRP | 0.165 |
| RRIRDRPPRLPRPRPRPCDMPRP | -0.0013 |
| RRIRWRPPRLPRPRPRPMTFPRP | -0.108 |
| RRIRVRPPRLPRPRPRPRNLPRP | 0.107 |
| RRIRCRPPRLPRPRPRPVPQPRP | 0.0921 |
| RRIRYRPPRLPRPRPRPRCKPRP | -0.573 |
| RRIRARPPRLPRPRPRPRRHPRP | 1.65 |
| RRIRWRPPRLPRPRPRPMITPRP | 0.0975 |
| RRIRARPPRLPRPRPRPTPMPRP | 0.528 |
| RRIRMRPPRLPRPRPRPYAWPRP | -0.107 |
| RRIRLRPPRLPRPRPRPYDPPRP | -0.109 |
| RRIRGRPPRLPRPRPRPGWPPRP | 1.18 |

| Sequence | shrunken log2 fold change |
| --- | --- |
| RRIRRRPPRLPRPRPRPLHHPRP | 0.31 |
| RRIRARPPRLPRPRPRPAPNPRP | 0.737 |
| RRIRQRPPRLPRPRPRPHKEPRP | 0.114 |
| RRIRIRPPRLPRPRPRPNCVPRP | -0.376 |
| RRIRDRPPRLPRPRPRPLIVPRP | 0.173 |
| RRIRNRPPRLPRPRPRPNTMPRP | 0.402 |
| RRIRMRPPRLPRPRPRPNGHPRP | -0.00897 |
| RRIRVRPPRLPRPRPRPYIAPRP | -0.608 |
| RRIRTRPPRLPRPRPRPVCFPRP | -0.104 |
| RRIRKRPPRLPRPRPRPYPFPRP | 0.00884 |
| RRIRPRPPRLPRPRPRPEQWPRP | 0.0326 |
| RRIRKRPPRLPRPRPRPQVHPRP | -0.161 |
| RRIRYRPPRLPRPRPRPMFMPRP | -1.22 |
| RRIRRRPPRLPRPRPRPPTFPRP | 0.0767 |
| RRIRGRPPRLPRPRPRPSPRPRP | 0.927 |
| RRIRLRPPRLPRPRPRPNKHPRP | -0.43 |
| RRIRCRPPRLPRPRPRPCNGPRP | -0.00386 |
| RRIRFRPPRLPRPRPRPPTGPRP | 0.217 |
| RRIRRRPPRLPRPRPRPMCKPRP | 0.141 |
| RRIRFRPPRLPRPRPRPEFQPRP | 0.0542 |
| RRIRERPPRLPRPRPRPLFPPRP | -0.264 |
| RRIRWRPPRLPRPRPRPATQPRP | 0.105 |
| RRIRMRPPRLPRPRPRPRRIPRP | 0.767 |
| RRIRGRPPRLPRPRPRPEWFPRP | 0.683 |
| RRIRPRPPRLPRPRPRPGSDPRP | -0.00287 |

| Sequence | shrunken log2 fold change |
| --- | --- |
| RRIRERPPRLPRPRPRPVAAPRP | 0.247 |
| RRIRCRPPRLPRPRPRPPMGPRP | 0.155 |
| RRIRKRPPRLPRPRPRPKKDPRP | 0.337 |
| RRIRVRPPRLPRPRPRPNWNPRP | -0.318 |
| RRIRSRPPRLPRPRPRPRFQPRP | 0.233 |
| RRIRARPPRLPRPRPRPYQGPRP | -0.135 |
| RRIRRRPPRLPRPRPRPVLVPRP | 0.487 |
| RRIRLRPPRLPRPRPRPYNTPRP | -0.806 |
| RRIRQRPPRLPRPRPRPQKVPRP | -0.0255 |
| RRIRLRPPRLPRPRPRPMLLPRP | -0.56 |
| RRIRPRPPRLPRPRPRPFIVPRP | -0.257 |
| RRIRIRPPRLPRPRPRPIETPRP | -0.0467 |
| RRIRWRPPRLPRPRPRPNQNPRP | -0.221 |
| RRIRHRPPRLPRPRPRPHYQPRP | 0.0121 |
| RRIRIRPPRLPRPRPRPIDGPRP | -0.248 |
| RRIRPRPPRLPRPRPRPTDIPRP | -0.241 |
| RRIRMRPPRLPRPRPRPHIEPRP | -0.0375 |
| RRIRDRPPRLPRPRPRPFCFPRP | 0.265 |
| RRIRLRPPRLPRPRPRPGSHPRP | 0.0329 |
| RRIRCRPPRLPRPRPRPVQLPRP | 0.0365 |
| RRIRQRPPRLPRPRPRPGQWPRP | 0.00718 |
| RRIRGRPPRLPRPRPRPCSRPRP | 0.0838 |
| RRIRFRPPRLPRPRPRPGKTPRP | -0.142 |
| RRIRERPPRLPRPRPRPVPTPRP | 0.116 |
| RRIRIRPPRLPRPRPRPMSMPRP | -0.281 |

| Sequence | shrunken log2 fold change |
| --- | --- |
| RRIRSRPPRLPRPRPRPDYVPRP | 0.063 |
| RRIRERPPRLPRPRPRPMNTPRP | -0.0609 |
| RRIRWRPPRLPRPRPRPHGTPRP | -0.137 |
| RRIRFRPPRLPRPRPRPCYQPRP | -0.229 |
| RRIRQRPPRLPRPRPRPERRPRP | 0.0099 |
| RRIRIRPPRLPRPRPRPGRPPRP | 0.398 |
| RRIRDRPPRLPRPRPRPHFYPRP | -0.321 |
| RRIRNRPPRLPRPRPRPTYAPRP | 0.027 |
| RRIRMRPPRLPRPRPRPHNHPRP | -0.239 |
| RRIRKRPPRLPRPRPRPRIGPRP | 0.128 |
| RRIRHRPPRLPRPRPRPICPPRP | -0.144 |
| RRIRVRPPRLPRPRPRPHHQPRP | -0.427 |
| RRIRARPPRLPRPRPRPTFKPRP | 0.341 |
| RRIRLRPPRLPRPRPRPCSLPRP | 0.00822 |
| RRIRYRPPRLPRPRPRPESSPRP | -0.0327 |
| RRIRQRPPRLPRPRPRPVYFPRP | -0.446 |
| RRIRRRPPRLPRPRPRPPVNPRP | 0.282 |
| RRIRNRPPRLPRPRPRPRLCPRP | 0.121 |
| RRIRQRPPRLPRPRPRPEFEPRP | -0.0193 |
| RRIRHRPPRLPRPRPRPGQWPRP | 0.318 |
| RRIRQRPPRLPRPRPRPYEEPRP | -0.434 |
| RRIRKRPPRLPRPRPRPNDAPRP | 0.0832 |
| RRIRFRPPRLPRPRPRPKAPPRP | 0.453 |
| RRIRMRPPRLPRPRPRPYYWPRP | -0.123 |
| RRIRTRPPRLPRPRPRPASDPRP | -0.141 |
